Source: publication PMC10090139

Molecular target: endogenous KIT of C57 mouse mast cells (UniProt P05532)
Test: immunoprecipitation with anti-Flag antibody and immunoblot, densitometric analysis by ImageJ
Conditions: n = 4, p = 0.0013 (two-tailed unpaired Student's t-test), parent: est. 1.0, read off a plot

Chain of UniProt P05532 (P05532 25-979): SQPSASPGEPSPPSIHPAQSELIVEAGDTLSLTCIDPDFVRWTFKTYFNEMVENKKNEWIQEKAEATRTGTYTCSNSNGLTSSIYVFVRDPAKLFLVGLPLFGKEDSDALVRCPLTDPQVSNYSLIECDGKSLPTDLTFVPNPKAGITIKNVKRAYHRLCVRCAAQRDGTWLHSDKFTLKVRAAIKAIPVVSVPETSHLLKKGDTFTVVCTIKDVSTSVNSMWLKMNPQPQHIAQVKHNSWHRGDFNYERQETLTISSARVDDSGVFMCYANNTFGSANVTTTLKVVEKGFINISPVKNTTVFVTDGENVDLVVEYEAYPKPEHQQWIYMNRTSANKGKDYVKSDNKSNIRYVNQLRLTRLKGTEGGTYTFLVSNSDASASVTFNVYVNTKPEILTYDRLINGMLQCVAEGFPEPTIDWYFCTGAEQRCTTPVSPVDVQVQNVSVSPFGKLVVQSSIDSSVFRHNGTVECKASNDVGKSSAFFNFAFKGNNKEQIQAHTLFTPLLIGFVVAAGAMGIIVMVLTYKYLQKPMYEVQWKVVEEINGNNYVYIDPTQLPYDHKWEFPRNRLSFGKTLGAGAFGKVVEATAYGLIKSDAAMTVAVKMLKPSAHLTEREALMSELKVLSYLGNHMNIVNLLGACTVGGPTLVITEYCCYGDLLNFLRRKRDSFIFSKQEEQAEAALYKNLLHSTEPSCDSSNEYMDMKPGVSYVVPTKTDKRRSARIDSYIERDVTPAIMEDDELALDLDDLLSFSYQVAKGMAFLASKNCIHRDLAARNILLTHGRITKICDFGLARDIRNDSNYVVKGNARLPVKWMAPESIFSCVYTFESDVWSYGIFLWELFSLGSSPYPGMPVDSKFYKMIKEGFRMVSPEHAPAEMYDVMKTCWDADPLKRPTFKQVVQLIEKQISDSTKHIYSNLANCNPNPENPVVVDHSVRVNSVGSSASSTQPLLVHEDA

wild-type MCEMP1 with carboxyl-terminal Flag, stably expressed in C57 mouse mast cells (from UniProt Q8IX19) YF
ratio to parent: 0.45
